Assay [1] deals with T1, human ZnT8 over-expressed in HEK293 cells (human, UniProt Q8IWU4 1-369).
T1 construct: whole, on cells; Cells were fixed and permeabilized for immunofluorescence and flow cytometry (intracellular staining); The same id is used for the detergent lysates of over-expressing cells in the HTRF assay; also called ZnT8(+) HEK293 cells; HEK293 cells stably expressing human ZnT8
T1 sequence (looked up): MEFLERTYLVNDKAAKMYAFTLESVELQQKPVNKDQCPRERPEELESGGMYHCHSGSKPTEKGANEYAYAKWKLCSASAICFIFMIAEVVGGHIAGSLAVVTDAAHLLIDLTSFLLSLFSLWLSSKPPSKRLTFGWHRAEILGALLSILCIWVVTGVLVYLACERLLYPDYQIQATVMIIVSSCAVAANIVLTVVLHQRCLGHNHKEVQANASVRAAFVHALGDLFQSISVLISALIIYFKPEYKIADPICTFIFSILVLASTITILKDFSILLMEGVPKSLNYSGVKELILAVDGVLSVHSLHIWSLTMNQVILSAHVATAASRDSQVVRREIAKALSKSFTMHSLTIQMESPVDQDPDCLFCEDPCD
In words: flow cytometry, serial mAb dilutions on fixed, permeabilized HEK293 cells stably expressing human ZnT8; one-component fit. The source says:
(§1) FIG. 6A-6C. mAb binding affinity. (FIG. 6A) Representative confocal microscopy images of immunofluorescence staining of fixed and saponin-permeabilized HEK293 cells with mAb20 or mAb39 staining as indicated. ZnT8(+) or ZnT8(−) denotes HEK293 cells w/o ZnT8 over-expression. Red: mAb20 or mAb39 staining, blue: DAPI, scale bar: 5 um. (FIG. 6B) Histograms of flow cytometry counting events. Arrows indicate leftward shifts of the histogram as a result of mAb serial dilutions. (FIG. 6C) mAb binding to HEK293 cells w/o ZnT8 overexpression as indicated. Immunofluorescence intensities of mAb20 or mAb39 labeling in serial dilutions were obtained from (FIG. 6B). Solid lines are least-squares fits of the binding data to a one-component binding process.
(§2) Flow cytometry analysis. HEK293 cells w/o ZnT8 over-expression were fixed, permeabilized, and resuspended in PBS plus 5% BSA at a density of 1×10⁶/ml as described previously (43). Aliquots of 100 μl cell suspension were stained with mAb20 or mAb39 in 3-fold serial dilutions for 2 hours at RT, and then stained with Alexa fluor 647-conjugated donkey-anti-mouse secondary antibody in 1:1000 dilution with 5% BSA (Thermo Fisher Scientific, cat. #A31571). The labeled cells were analyzed immediately by flow cytometry. […]
(§3) Binding affinity. […] No mAb staining was detected in parental HEK293 cells without ZnT8 over-expression. […]
On the technique in general: In flow cytometry, cells or beads pass a laser one at a time.

In assay [2] the target is T1, human ZnT8 over-expressed in HEK293 …. In words: flow cytometry of fixed and permeabilized HEK293 cells, mean fluorescence against antibody concentration.
Excerpt: as §1, §2, §3

The next assay deals with T2, human ZnT8-His (human, UniProt Q8IWU4-2 1-320, limits assumed).
T2 construct: Over-expressed in HEK293 cells, solubilized with DDM and immobilized on Ni-NTA plates (native or unfolded with 2% SDS), or SDS-denatured on immunoblots; also called human ZnT8 with C-terminal poly-histidine tag; not shown: C-terminal poly-histidine tag
T2 sequence (looked up): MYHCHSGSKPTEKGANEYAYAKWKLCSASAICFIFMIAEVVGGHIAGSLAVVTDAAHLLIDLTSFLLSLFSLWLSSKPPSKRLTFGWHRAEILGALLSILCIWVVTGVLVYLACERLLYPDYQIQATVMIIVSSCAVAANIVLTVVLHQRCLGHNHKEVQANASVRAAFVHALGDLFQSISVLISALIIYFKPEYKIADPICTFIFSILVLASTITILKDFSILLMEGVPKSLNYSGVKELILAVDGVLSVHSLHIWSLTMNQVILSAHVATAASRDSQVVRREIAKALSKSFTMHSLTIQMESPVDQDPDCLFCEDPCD
In words: ELISA titration on ZnT8-His immobilized on Ni-NTA plate; apparent binding affinity, one-component fit; DDM-solubilized human ZnT8 immobilized to Ni-NTA plate via His-tag; mAb titration. An excerpt: FIG. 7A-7D. mAb binding specificities (FIG. 7A) mAb binding to ZnT8-His immobilized to Ni-NTA plate. Bound mAb20 (red) or mAb39 (magenta) was detected by an HRP-conjugated secondary antibody. Solid lines are least-squares fits of binding datapoints to a one-component binding process. Error bars are standard errors (n=8). (FIG. 7B) SDS-denatured mouse ZnT8-His (labeled as M) and human ZnT8-His (labeled as H) on immunoblots were detected by mAb20 or mAb39 as indicated. […] (FIG. 7C) Detection of endogenous human ZnT8 in EndoC-βH cells by mAb20 or […] immunoblotting. An equal amount of EndoC-βH lysate (5 μg total protein) was loaded to each lane. (FIG. 7D) Immunoblotting of HEK lysates with or with over-expression of a ZnT homolog as indicated. An approximately equal amount of total lysate protein (5 μg) was located to each lane, probed by either mAb20, mAb39, or anti-FALG antibody as indicated. FIG. 8. HTRF response to human ZnT8, mouse ZnT8 and human ZnT3.
Binding specificities. […] Of note, the epitope-masking effect of ZnT8 immobilization weakened the apparent binding affinities of both mAbs as compared to the affinities determined by flow-cytometry, and such a weakening effect was more pronounced for mAb39, probably due to a closer proximity of the mAb39 epitope to the C-terminal His-tag. Next, we compared the immunoreactivities of mAbs to denatured ZnT8.

Residue numbers refer to the chain shown, from its start.

B1: mAb20 (antibody, V domains shown)
VH: QIQLVQSGPELKKPGETVKISCKASGYIFTNYPMHWVKQAPGKGLKWMGWINTYSGVPTHADDFKGRFAFSLETSANSAFLQINNLKNEDTATYFCTRSRITPTGGYAMDYWGQGTSVTVSS
VL: DVVMTQTPLSLPVSLGDQASISCRSSQSLVHSNGNTYLHWYLQKPGQSPNLLISKVSNRFSGVPERFSGSGSGTDFTLKISRVEAEDLGVYFCSQNTHVPWTFGGGTKLEIKR
notes: Mouse hybridoma mAb purified on protein A/G; In some assays it was labelled with Alexa Fluor 488 or terbium cryptate; also called monoclonal antibody mAb20; anti-ZnT8 mAb20
By EC50 (read off the curve) is commonly meant the concentration at which the effect is half-maximal. In the case of B1, the Kd is 0.8 nM in assay [1] and 2.5 nM with human ZnT8-His. The “EC50 (read off the curve)” value in assay [2] was approximately 0.1 µg/mL.

B2: mAb39 (antibody, V domains shown)
VH: QVQLQQPGAELVKPGASVKLSCKASGYSFTTYWMHWVKQRPGQGLEWVGDINPRNGRTNYNEKSKSKATLTVDISSSTVYMQVSSLTSEDSAVYYCAIWSGAMDYWGPGTSVTVSS
VL: B1 VL with A19P, R24K, S32N, N50K, S54Y, E65D, N96T, W101P
notes: Mouse hybridoma mAb purified on protein A/G; In some assays it was labelled with Alexa Fluor 555 or d2; also called monoclonal antibody mAb39; anti-ZnT8 mAb39
For the molecule B2, the Kd was determined as 0.7 nM in assay [1] and 17.6 nM with human ZnT8-His. Also, in assay [2], the “EC50 (read off the curve)” value is approximately 0.1 µg/mL.

Values taken from patent US20210238279A1 (Johns Hopkins, published 2021).
